# T1: soluble human erythropoietin receptor protein (huEpoR) (human) (UniProt P19235)
# T1 sequence (looked up): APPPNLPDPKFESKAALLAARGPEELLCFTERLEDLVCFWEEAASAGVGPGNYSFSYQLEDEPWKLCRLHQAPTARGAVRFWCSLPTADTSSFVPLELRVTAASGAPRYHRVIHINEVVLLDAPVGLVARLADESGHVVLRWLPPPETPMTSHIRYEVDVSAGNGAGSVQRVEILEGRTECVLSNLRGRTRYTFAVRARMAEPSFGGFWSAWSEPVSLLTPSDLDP
# T2: human erythropoietin receptor (huEpoR), cell surface expressed (human) (UniProt P19235)
# T2 sequence (looked up): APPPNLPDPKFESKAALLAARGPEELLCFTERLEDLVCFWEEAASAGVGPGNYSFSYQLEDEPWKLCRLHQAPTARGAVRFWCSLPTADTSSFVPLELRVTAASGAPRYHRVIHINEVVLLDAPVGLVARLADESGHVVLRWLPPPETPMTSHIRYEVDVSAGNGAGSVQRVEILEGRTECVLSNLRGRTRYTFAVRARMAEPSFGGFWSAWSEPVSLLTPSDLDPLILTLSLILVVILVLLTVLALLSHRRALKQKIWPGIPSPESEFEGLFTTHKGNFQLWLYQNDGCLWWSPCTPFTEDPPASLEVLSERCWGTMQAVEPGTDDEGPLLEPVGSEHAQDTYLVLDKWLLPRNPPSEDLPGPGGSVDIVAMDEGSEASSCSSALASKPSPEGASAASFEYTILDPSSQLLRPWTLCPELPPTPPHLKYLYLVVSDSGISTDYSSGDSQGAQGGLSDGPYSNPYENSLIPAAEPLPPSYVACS
# Legend:
# [1] = biological target: T1, soluble human erythropoietin receptor protein (huEpoR) (human); assay: SPR, Biacore T100; scFv-Fc captured by anti-human IgG Fc on CM5 chip, EpoR as analyte
# [2] = biological target: cynomolgus monkey EpoR (cynoEpoR) (cynomolgus monkey); assay: as above
# [3] = biological target: T2, human erythropoietin receptor (huEpoR), cell surface expressed (human); assay: cell-based or functional assay
# [4] = biological target: cynomolgus monkey EpoR (cynoEpoR) (cynomolgus monkey); assay: SPR, Biacore T100; scFv-Fc captured on CM5 chip, EpoR as analyte; fit to steady-state model (off-rate too rapid); clone #318, cynomolgus EpoR, steady-state fit
# [5] = biological target: cynomolgus monkey EpoR (cynoEpoR) (cynomolgus monkey); assay: SPR, Biacore T100; scFv-Fc captured on CM5 chip, EpoR as analyte; fit to steady-state model (off-rate too rapid); clone #34, cynomolgus EpoR, steady-state fit
Binder,Kd [1] [nM],koff [1] [s⁻¹],kon [1] [M⁻¹ s⁻¹],Kd [2] [nM],koff [2] [s⁻¹],kon [2] [M⁻¹ s⁻¹],"Average EC50, UT-7-luciferase assay [3] [nM]",Kd [4] [nM],Kd [5] [nM]
"clone 16 scFv-Fc protein (Fc fusion, part only; not given: scFv linker and IgG1 Fc, not shown: a dimerising Fc or GST) scFv, part: QVQLQESGPGLVKPSETLSLTCTVSGGYINNYYWSWIRQPPGKGLEWIGYIHYSGSTYYNPSLKSRVTISEDTSKNQFSLKLSSATAADTAVYYCARVGYYYDSSGYNLAWYFDLWGRGTLVTVSASSELTQDPAVSVALGQTVRITCQGDNLRSYSATWYQQKPGQAPVLVLFGENNRPSGIPDRFSGSKSGDTAVLTITGTQTQDEADYYCTSRVNSGNHLGVFGPGTQLTVL",2190,0.142,65000,4360,0.283,65000,–,–,–
"clone 323 scFv-Fc protein (Fc fusion, part only; not given: scFv linker and IgG1 Fc, not shown: a dimerising Fc or GST) scFv, part: QVQLVESGGGLVQPGGSLRLSCAVSGFTFSKYWMTWVRQAPGKGLEWVANIKPDGSEKYYVESVKGRFTISRDNAKNSVYLQMNSVRAEDTAVYYCARVSRGGSFSDWGRGTMVTVSSQSALTQPASVSGSPGQSITISCTGTSSDVGSYNLVSWYQQHPGKVPKLIIYEVSNRPSGVSHRFSGSKSGNTASLTISGLQAEDEADYYCSSLTSSGTWVFGGGTKVTVL",–,–,–,–,–,–,0.613,–,–
"clone 201 scFv-Fc protein (Fc fusion, part only; not given: scFv linker and IgG1 Fc, not shown: a dimerising Fc or GST) scFv, part: QVQLQESGSGLARPSQTLSLTCAVSGGSISSSAFSWNWIRQPPGKGLEWIGYIYHTGITDYNPSLKSRVTISVDRSKNQFSLNVNSVTAADTAVYYCARGHGSDPAWFDPWGKGTLVTVSSQSVLTQPPSVSVSPGQTASITCSGDKLGDKYASWYQQRPGQSPVLVIYRDTKRPSGIPERFSGSNSGNTATLTISGTQAVDEADYYCQAWDSTTSLVFGGGTKLTVL",4030,0.0187,4600,18600,0.0508,2700,8.28,–,–
"clone 378 scFv-Fc protein (Fc fusion, part only; not given: scFv linker and IgG1 Fc, not shown: a dimerising Fc or GST) scFv, part: QVQLVESGGGLVQPGRSLILSCAVSGFTFSKYWMTWVRQAPGKGLEWVANIKPDGSEKYYVESVKGRFTISRDNAKNSVYLQMNSVRAEDTAVYYCARVSRGGSFSDWSQGTLVTVSSQSALTQPPSASGSPGQSVTISCTGTSGDVGAYNYVSWYQQYPGKAPKLMIYEVSKRPSGVPDRFSGSKSGNTASLTVSGLQAEDEADYYCNSYRGSNGPWVFGGGTKVTVL",–,–,–,–,–,–,0.055,–,–
"clone 15 scFv-Fc protein (Fc fusion, part only; not given: scFv linker and IgG1 Fc, not shown: a dimerising Fc or GST) scFv, part: QVQLQESGPGLVRPSGTLSLTCAVSGGSIGSSNWWSWVRQAPGKGLEWIGEISQSGSTNYNPSLKGRVTISLDRSRNQLSLKLSSVTAADTAVYYCARQLRSIDAFDIWGPGTTVTVSASYVLTQPPSVSVSPGLTATITCSGDKLGDKYASWYQQKPGQSPVLVIYQDRKRPSGIPERFSGSNSGNTATLTISGTQAVDEADYYCQAWDSDTSYVFGTGTQLTVL",1950,0.119,61000,3130,0.115,37000,2.8,–,–
"clone 352 scFv-Fc protein (Fc fusion, part only; not given: scFv linker and IgG1 Fc, not shown: a dimerising Fc or GST) scFv, part: EVQLVQSGGGLVQPGGSLRLSCAASGFRFSSYWMTWVRQAPGKGLEWVANIKPDGSEKYYVDSVKGRFTMSRDNAKNSVYLQMNSLRAEDTAVYYCARVSRGGSFSDWGQGTLVTVSSQSALTQPASVSGSPGQSITIPCTGTSSDIGTYDYVSWYQQHPGKVPKVIIYEVTNRPSGVSNRFSGSKSGNTASLTISGLQADDEADYYCNSFTKNNTWVFGGGTKLTVL",–,–,–,–,–,–,2.16,–,–
"clone 276 scFv-Fc protein (Fc fusion, part only; not given: scFv linker and IgG1 Fc, not shown: a dimerising Fc or GST) scFv, part: EVQLVQSGGGLVQPGGSLRLSCAASGFTFSSYWMSWVRQAPGKGLEWVANIKPDGSEKYYVDSVKGRFTISRDNAKNSVYLQMNSLRAEDTAVYYCARVSRGGSYSDWGRGTMVTVSSQSVLTQPPSASGSPGQSVTISCTGTSSDVGGFNYVSWYQKYPGKAPKLVIYEVSKRPSGVPDRFSGSKSGNTASLTVSGLQAEDEADYYCSSWAPGKNLFGGGTKLTVL",–,–,–,–,–,–,0.322,–,–

# Further lines, results first:
Kd [1] [nM],koff [1] [s⁻¹],kon [1] [M⁻¹ s⁻¹],Kd [2] [nM],koff [2] [s⁻¹],kon [2] [M⁻¹ s⁻¹],"Average EC50, UT-7-luciferase assay [3] [nM]",Kd [4] [nM],Kd [5] [nM],Binder
108,0.246,2.28e+06,1210,0.361,299000,0.381,–,–,"clone 307 scFv-Fc protein (Fc fusion, part only; not given: scFv linker and IgG1 Fc, not shown: a dimerising Fc or GST) scFv, part: EVQLVESGGGLVQPGGSLRLSCAVSGFTFSKYWMTWVRQAPGKGLEWVANIKPDGSEKYYVESVKGRFTISRDNAKNSVYLQMNSVRAEDTAVYYCARVSRGGSFSDWGQGTMVTVSSQSVLTQPPSASGSPGQSVTISCTGTSSDVGGYNYVSWYQQHPDKAPRLMIYDVNKRPSGVPDRFSGSKSGNTASLTVSGLQAEDEAHYYCNSYAGSNNWVFGGGTQLTVL"
163,0.00296,18000,539,0.0221,41000,0.607,–,–,"clone 295 scFv-Fc protein (Fc fusion, part only; not given: scFv linker and IgG1 Fc, not shown: a dimerising Fc or GST) scFv, part: EVQLVESGGGLVQPGGSLRLSCAASGFTFSSYAMSWVRQAPGKGLEWVSGISGSGSSEGGTYYADSVKGRFTLSRDNSKNTLYLQMNSLRAEDTALYYCVKDRPSRYSFGYYFDYWGRGTLVTVSSLPVLTQPPSVSVSPGQTASIACSGNKLGDKYVSWYQQKPGQSPLLVIYQDTKRPSGIPERFSGSNSGNTATLTISGTQAMDEADYYCQAWDSSTDVVFGGGTKLTVL"
1040,0.0568,55000,920,0.0597,65000,4.03,–,–,"clone 13 scFv-Fc protein (Fc fusion, part only; not given: scFv linker and IgG1 Fc, not shown: a dimerising Fc or GST) scFv, part: QVQLQQSGGGVVQPGRSLRLSCAASGFTFSDYAMHWVRQAPGKGLEWVAVISNHGKSTYYADSVKGRFTISRDNSKHMLYLQMNSLRADDTALYYCARDIALAGDYWGQGTLVTVSADIQMTQSPSSLSASVGDRVTITCRASQSISSYLNWYQQLPGKVPKLLIYGASKLQSGVPSRFSGSGSGTDFTLTISSLQPEDFATYYCLQDYNYPLTFGPGTRLEIK"
45.4,0.0373,822000,890,0.0965,108000,0.0075,–,–,"clone 330 scFv-Fc protein (Fc fusion, part only; not given: scFv linker and IgG1 Fc, not shown: a dimerising Fc or GST) scFv, part: EVQLVESGGGLVQPGGSLRLSCAVSGFTFSKYWMTWVRQAPGKGLEWVANIKPDGSEKYYVESVKGRFTISRDNAKNSVYLQMNSVRAEDTAVYYCARVSRGGSFSDWGQGTLVTVSSQSALTQPPSASGSPGQSVTISCTGTSSDVGAYNYVSWYQQHPGKAPKLMIYEVARRPSGVPDRFSGSKSGNTASLTVSGLQAEDEADYYCSSYAGSNNFAVFGRGTKLTVL"
212,0.0335,158000,121,0.0258,213000,5.87,–,–,"clone 319 scFv-Fc protein (Fc fusion, part only; not given: Linker and IgG1 Fc, not shown: another chain or arm of the molecule; a dimerising Fc or GST; small tags and cut ends) VH: QVQLVQSGAEIKKPGASVKVSCKTFGSPFSTNDIHWVRQAPGQGLEWMGIIDTSGAMTRYAQKFQGRVTVTRETSTSTVYMELSSLKSEDTAVYYCAREGCTNGVCYDNGFDIWGQGTLVTVSS VL: DIQMTQSPSTLSASIGDRVTITCRASEGIYHWLAWYQQKPGKAPKLLIYKASSLASGAPSRFSGSGSGTDFTLTISSLQPDDFATYYCQQYSNYPLTFGGGTKLEIK"
847,0.558,659000,–,–,–,0.0154,4890,–,"clone 318 scFv-Fc protein (Fc fusion, part only; not given: scFv linker and IgG1 Fc, not shown: a dimerising Fc or GST) scFv, part: QVQLVESGGGLVQPGGSLRLSCAVSGFTFSKYWMTWVRQAPGKGLEWVANIKPDGSEKYYVESVKGRFTISRDNAKNSVYLQMNSVRAEDTAVYYCARVSRGGSFSDWGQGTLVTVSSQSVLTQPPSASGSPGQSVTISCTGTSSDVGGYNYVSWYQQHPGRAPKLIIYEVSKRPSGVPDRFSGSKSGNTASLTVSGLQADDEADYYCNSYAGSIYVFGSGTKVTVL"
378,0.203,536000,–,–,–,0.11,–,5810,"clone 34 scFv-Fc protein (Fc fusion, part only; not given: Linker and IgG1 Fc, not shown: another chain or arm of the molecule; a dimerising Fc or GST; small tags and cut ends) VH: QVQLQQSGAEVKKPGASVKVSCKASGYTFSGYYMHWVRQAPGQGLEWMGWINPNSGSTNYAQKFLGRVTMTRDTSISTAYMELSSLRSDDTAVYYCARGHSGDYFDYWGQGTLVTVSA VL: EIVLTQSPSSLSASVGDRVTITCRASQSVSSWLAWYQQRPGQAPKLLIYAARLRGGGPSRFSGSGSGTEFTLTISSLQPEDFATYFCQQSYSTPISFGGGTKLEIK"

# Source: patent US20080124340A1
